From paper PMC6538607

Columns and labels:
[1] = target: p43, the major excreted/secreted protein of Trichuris muris (native p43) (Trichuris muris); test: MST; serial dilution of IL-13 from 2500 nM to 40 pM with 5 nM NHS-647-labeled p43; 20 mM HEPES, 150 mM NaCl, 0.005% Tween-20, pH 7.4; KD model (1:1 stoichiometry); three reactions
[2] = target: p43, the major excreted/secreted protein of Trichuris muris (native p43) (Trichuris muris); test: native MS; p43 and IL-13 mixed at a ratio of 1.5:1 in 250 mM ammonium acetate, pH 7, 2 h at room temperature; nano-electrospray, collision-induced dissociation of the mass-selected 18+ ion of the complex

B1: recombinant murine interleukin-13 (ligand)
chain: APGPVPRSVSLPLTLKELIEELSNITQDQTPLCNGSMVWSVDLAAGGFCVALDSLTNISNCNAIYRTQRILHGLCNRKAPTTVSSLPDTKIEVAHFITKLLSYTKQLFRHGPF
Kd [1]: 420 nM | stoichiometry N [2]: 1
